# Earlier results as cited in article PMC5871670.
# pKd: −log10 of the molar value.
# What was measured:
# [1] = target: cytokeratin 1 (CK1) (Homo sapiens) (UniProt P04264); assay: surface plasmon resonance
# gC1q-R (Homo sapiens) = gC1q-R (Homo sapiens) (UniProt Q07021); assay: surface plasmon resonance
# uPAR (Homo sapiens) = uPAR (Homo sapiens) (UniProt Q03405); assay: surface plasmon resonance
# Factor XI (Homo sapiens) = Factor XI (Homo sapiens) (UniProt P03951)
# Sequence of UniProt P03951 (P03951 388-625): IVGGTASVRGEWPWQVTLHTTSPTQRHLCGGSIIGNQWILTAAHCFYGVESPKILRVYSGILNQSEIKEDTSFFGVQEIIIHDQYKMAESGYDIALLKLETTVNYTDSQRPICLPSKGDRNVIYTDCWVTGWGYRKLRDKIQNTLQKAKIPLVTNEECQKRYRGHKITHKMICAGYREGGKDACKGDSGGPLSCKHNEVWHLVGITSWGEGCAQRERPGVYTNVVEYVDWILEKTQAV
# Sequence of UniProt Q03405 (Q03405 23-305): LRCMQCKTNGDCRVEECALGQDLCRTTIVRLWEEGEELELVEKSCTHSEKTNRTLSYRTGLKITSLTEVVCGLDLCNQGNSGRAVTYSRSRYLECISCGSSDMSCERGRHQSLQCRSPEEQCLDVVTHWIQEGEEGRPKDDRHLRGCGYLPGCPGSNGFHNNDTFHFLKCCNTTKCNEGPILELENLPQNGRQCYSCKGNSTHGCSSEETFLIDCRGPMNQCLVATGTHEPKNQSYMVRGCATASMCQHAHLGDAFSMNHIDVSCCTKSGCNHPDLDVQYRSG
# Sequence of UniProt Q07021 (Q07021 74-282): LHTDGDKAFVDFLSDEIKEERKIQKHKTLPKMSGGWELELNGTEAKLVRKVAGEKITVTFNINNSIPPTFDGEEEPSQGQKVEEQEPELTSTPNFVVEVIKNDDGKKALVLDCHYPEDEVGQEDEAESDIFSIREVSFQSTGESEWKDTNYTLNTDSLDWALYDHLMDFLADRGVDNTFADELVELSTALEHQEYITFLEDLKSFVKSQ
# Sequence of UniProt P04264 (P04264 2-644): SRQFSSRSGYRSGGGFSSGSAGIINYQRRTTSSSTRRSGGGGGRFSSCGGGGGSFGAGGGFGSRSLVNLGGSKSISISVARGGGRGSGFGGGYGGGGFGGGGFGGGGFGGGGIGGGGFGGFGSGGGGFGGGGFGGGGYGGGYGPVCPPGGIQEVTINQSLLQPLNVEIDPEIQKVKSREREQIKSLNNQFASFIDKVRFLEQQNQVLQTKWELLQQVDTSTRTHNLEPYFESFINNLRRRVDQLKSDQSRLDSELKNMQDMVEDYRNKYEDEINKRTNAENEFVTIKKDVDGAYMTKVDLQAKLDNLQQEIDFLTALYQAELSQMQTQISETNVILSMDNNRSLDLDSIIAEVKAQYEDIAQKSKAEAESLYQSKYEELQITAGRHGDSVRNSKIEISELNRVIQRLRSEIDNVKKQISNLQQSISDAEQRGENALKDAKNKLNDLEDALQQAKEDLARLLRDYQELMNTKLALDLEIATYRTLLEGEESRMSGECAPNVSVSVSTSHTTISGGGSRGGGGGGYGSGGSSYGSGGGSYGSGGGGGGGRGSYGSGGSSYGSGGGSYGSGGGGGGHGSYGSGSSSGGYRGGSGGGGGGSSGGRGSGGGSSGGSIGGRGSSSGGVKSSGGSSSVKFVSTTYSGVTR
pKd [1],pKd (gC1q-R (Homo sapiens)),pKd (uPAR (Homo sapiens)),pKd (Factor XI (Homo sapiens)),Substance
7.82,9.10,5.64,,high molecular weight kininogen (HK) (from UniProt P01042)
,,,7.28,GPIbα (from UniProt P07359)
